Positions count from the first letter of the chain named.

The chains are these.
T1: human FLT3 (FMS-like tyrosine kinase 3) (human, UniProt P36888 27-993)
T1 sequence (looked up): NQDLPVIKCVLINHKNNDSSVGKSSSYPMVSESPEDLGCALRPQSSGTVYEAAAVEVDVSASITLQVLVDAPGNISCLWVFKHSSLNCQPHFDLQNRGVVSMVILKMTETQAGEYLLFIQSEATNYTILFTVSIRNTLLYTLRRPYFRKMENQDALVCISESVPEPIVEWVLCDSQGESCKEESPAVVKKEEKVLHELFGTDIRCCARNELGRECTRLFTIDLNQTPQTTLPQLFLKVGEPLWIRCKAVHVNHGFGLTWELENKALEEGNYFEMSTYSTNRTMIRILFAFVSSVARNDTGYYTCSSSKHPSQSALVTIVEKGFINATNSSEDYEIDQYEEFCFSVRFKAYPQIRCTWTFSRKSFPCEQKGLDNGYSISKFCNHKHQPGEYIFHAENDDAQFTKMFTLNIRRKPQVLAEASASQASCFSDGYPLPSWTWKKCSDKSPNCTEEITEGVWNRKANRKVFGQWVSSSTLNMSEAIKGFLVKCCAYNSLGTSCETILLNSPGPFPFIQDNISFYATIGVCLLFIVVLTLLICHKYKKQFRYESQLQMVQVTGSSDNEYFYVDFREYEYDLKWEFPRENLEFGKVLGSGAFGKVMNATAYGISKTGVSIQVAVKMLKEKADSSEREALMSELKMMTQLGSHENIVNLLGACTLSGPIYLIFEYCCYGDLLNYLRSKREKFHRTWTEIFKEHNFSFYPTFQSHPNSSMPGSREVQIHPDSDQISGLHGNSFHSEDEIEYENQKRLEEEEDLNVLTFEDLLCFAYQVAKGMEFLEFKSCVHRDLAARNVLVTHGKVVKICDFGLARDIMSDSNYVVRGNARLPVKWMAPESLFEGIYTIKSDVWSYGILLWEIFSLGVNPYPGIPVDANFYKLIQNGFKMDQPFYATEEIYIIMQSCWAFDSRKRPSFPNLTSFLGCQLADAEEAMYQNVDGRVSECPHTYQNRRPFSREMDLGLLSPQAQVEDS

B1: NB1063 (antibody, V domains shown)
VH: EVQLLESGGGLVQPGGSLRLSCAPSGFTFSNYGMAWVRQAPGKGLEWVSSIHSGGGDTYYRDSVKGRFTISRDNSKNTLYLQMNSLRAEDTAVYYCARGRTPTGYYFDHWGQGTMVTVSS
VL: DIQMTQSPSSLSASVGDRVTITCRASEGIHNGLAWYQQKPGKVPKLLIYNANSLHSGVPSRFSGSGSGTDFTLTISSLQPEDVATYFCQQYYDYPLTFGQGTKLEIK
B2: NB1114 (antibody, V domains shown)
VH: B1 VH
VL: B1 VL with N31T
B3: NB1115 (antibody, V domains shown)
VH: B1 VH
VL: B1 VL with N31L
B4: NB1112 (antibody, V domains shown)
VH: B1 VH
VL: B1 VL with N31D
B5: Humanized VH5 x Humanized VL4 (antibody, V domains shown)
VH: B1 VH with L5V, G10V, L11V, R61A, T78S, A88T, V93L
VL: B1 VL with V43A, L46R, G57R, D70E, V83F, F87Y
B6: Humanized VH5 x Humanized VL1 (antibody, V domains shown)
VH: B1 VH with L5V, G10V, L11V, R61A, T78S, A88T, V93L
VL: B1 VL
B7: Humanized VH3 x Humanized VL2 (antibody, V domains shown)
VH: B1 VH with L5V, E46V, S75A
VL: B1 VL with D1A, V43A, V83F, F87Y
B8: Humanized VH4 x Humanized VL2 (antibody, V domains shown)
VH: B1 VH with E1Q, L5V, L11V, G16R, P24A, S49A, V93T
VL: B1 VL with D1A, V43A, V83F, F87Y
B9: Humanized VH5 x Humanized VL3 (antibody, V domains shown)
VH: B1 VH with L5V, G10V, L11V, R61A, T78S, A88T, V93L
VL: B1 VL with D1A, M4L, V43A, G57R, V83F
B10: Humanized VH5 x Humanized VL2 (antibody, V domains shown)
VH: B1 VH with L5V, G10V, L11V, R61A, T78S, A88T, V93L
VL: B1 VL with D1A, V43A, V83F, F87Y
B11: Humanized VH5 x Humanized VL5 (antibody, V domains shown)
VH: B1 VH with L5V, G10V, L11V, R61A, T78S, A88T, V93L
VL: EIVMTQSPATLSVSPGERATLSCRASEGIHNGLAWYQQKPGQAPRLLIYNANSLHSGIPARFSGSGSGTEFTLTISSLQSEDFAVYFCQQYYDYPLTFGQGTKLEIK
B12: Humanized VH1 x Humanized VL4 (antibody, V domains shown)
VH: B1 VH
VL: B1 VL with V43A, L46R, G57R, D70E, V83F, F87Y
B13: Humanized VH1 x Humanized VL2 (antibody, V domains shown)
VH: B1 VH
VL: B1 VL with D1A, V43A, V83F, F87Y
B14: Humanized VH4 x Humanized VL3 (antibody, V domains shown)
VH: B1 VH with E1Q, L5V, L11V, G16R, P24A, S49A, V93T
VL: B1 VL with D1A, M4L, V43A, G57R, V83F
B15: Humanized VH2 x Humanized VL1 (antibody, V domains shown)
VH: B1 VH with L5V, P24A, S49A, S75A, T78S
VL: B1 VL
B16: Humanized VH4 x Humanized VL1 (antibody, V domains shown)
VH: B1 VH with E1Q, L5V, L11V, G16R, P24A, S49A, V93T
VL: B1 VL
B17: Humanized VH2 x Humanized VL3 (antibody, V domains shown)
VH: B1 VH with L5V, P24A, S49A, S75A, T78S
VL: B1 VL with D1A, M4L, V43A, G57R, V83F
B18: Humanized VH4 x Humanized VL5 (antibody, V domains shown)
VH: B1 VH with E1Q, L5V, L11V, G16R, P24A, S49A, V93T
VL: B11 VL
B19: Humanized VH3 x Humanized VL1 (antibody, V domains shown)
VH: B1 VH with L5V, E46V, S75A
VL: B1 VL
B20: Humanized VH1 x Humanized VL5 (antibody, V domains shown)
VH: B1 VH
VL: B11 VL
B21: Humanized VH3 x Humanized VL5 (antibody, V domains shown)
VH: B1 VH with L5V, E46V, S75A
VL: B11 VL
B22: Humanized VH3 x Humanized VL3 (antibody, V domains shown)
VH: B1 VH with L5V, E46V, S75A
VL: B1 VL with D1A, M4L, V43A, G57R, V83F
B23: Humanized VH4 x Humanized VL4 (antibody, V domains shown)
VH: B1 VH with E1Q, L5V, L11V, G16R, P24A, S49A, V93T
VL: B1 VL with V43A, L46R, G57R, D70E, V83F, F87Y
B24: Humanized VH1 x Humanized VL3 (antibody, V domains shown)
VH: B1 VH
VL: B1 VL with D1A, M4L, V43A, G57R, V83F

The target in one test is T1, human FLT3 (FMS-like tyrosine kinase 3). The test can be described thus: cell-based or functional assay.
As to B1, the “EC50 in AML5 proliferation assay” value was 118 pM. As for B2, the “EC50 in AML5 proliferation assay” value came to 201 pM. Still for that read-out and setting: for B3 the value was 135 pM.

Regarding B4, the “EC50 in AML5 proliferation assay” value is 270 pM.

The target is the same in the next test. Briefly: cell-based or functional assay. The source holds these as a separate data set.
Regarding B5, the “Single dose STAT5-Luc assay, activity relative to NB1016 (chimeric), antibody at 1 nM” value was 77%. The same measure, in the same setting: to B6 belongs 83%. Take B7: the “Single dose STAT5-Luc assay, activity relative to NB1016 (chimeric), antibody at 1 nM” value amounted to 81%. On the same count and under the same terms, to B8 belongs 90%; to B9, 31%; to B10, 53%.

On to B11, for which the “Single dose STAT5-Luc assay, activity relative to NB1016 (chimeric), antibody at 1 nM” value turned out to be 75%.

Take B12: the “Single dose STAT5-Luc assay, activity relative to NB1016 (chimeric), antibody at 1 nM” value stood at 91%. The same measure, in the same setting: for B13 the value was 72%.

For the next test the target is unchanged. The test can be described thus: cell-based or functional assay. The source holds these as a separate data set.
The molecule “FLT3 ligand (FLT3L) (from UniProt P49771 27-181)” gave an EC50 of expansion of HLA-DR+CD1c+ cells from primary human bone marrow, 12 days of 23 pM.

The target is the same in another test. The test can be described thus: cell-based or functional assay. This is another data set of the same source.
Consider B14, for which the “EC50 in AML5 proliferation assay” value worked out at 91 pM. Still for that read-out and setting: to B15 belongs 80 pM.

Take B16: the “EC50 in AML5 proliferation assay” value is 82 pM. Consider B17, for which the “EC50 in AML5 proliferation assay” value came to 91 pM. The same measure, in the same setting: for B18 the value was 98 pM; for B19, 76 pM.

Consider B20, for which the “EC50 in AML5 proliferation assay” value was 97 pM. Still for that read-out and setting: for B21 the value was 70 pM.

In the case of B22, the “EC50 in AML5 proliferation assay” value was determined as 51 pM.

For the molecule B23, the “EC50 in AML5 proliferation assay” value is 95 pM.

Turning to B24, the “EC50 in AML5 proliferation assay” value came to 105 pM.

(Values after patent publication US20220025055A1 (Boehringer Ingelheim, published 2022).)
